The values that follow come from paper PMC7067600 (Nature structural & molecular biology, 2019).

Sequences and labels used below:
B1: StrepII-tagged Gallus gallus FANCD2 (expressed alone) (natural protein, UniProt Q68Y81 1-1439, looked up)
chain: MVSKRKLSKIDAAEESSKTDLQSRCPETKRSRISDKRAPSQGGLENEGVFEELLRTSGIILKVGEGQNEIAVDQTAFQKKLRVALEKHPSYPGVVNEFISGLESHIKDRSQFKNCLLPCTPARTEGSRTLVHSYCESLIKLLLGIKILQPAVVTLLLEKIPEFFFDVVGTFGTNFPRLIVNQFKWLDGLLDSQDLVKKLMQMLSVSPVPIQHDIITSLPEILEDSQQNEVARELSCLLKQGRRLTVPILDALSRLDLDAELLAEVRQSAMTIVPSVKLEDLPVVIKFILHNVKAADAVEVISDLRKSLDLSSCVLPLQLLGSQRKLKSQAQASSSMSQVTTSQNCVKLLFDVIKQAVRFQKDVSEAWIKAIENSTSVSDHKVLDLIVLLLIHSTNSKNRKQTEKVLRSKIRLGCMPEQLMQNAFQNHSMVIKDFFPSILSLAQTFLHSAHPAVVSFGSCMYKQAFAVFDSYCQQEVVCALVTHVCSGNETELDISLDVLTDLVILHPSLLLRYATFVKTILDSMQKLNPCQIRKLFYILSTLAFSQRQEGSYIQDDMHMVIRKWLSSSVPNHKQMGIIGAVTMMGSVALKRNEADGGLLERPELSIECDGQLSTLLDLVGFCCEQTPEVLALYYDELANLIEKQKGNLDLQLLDKFGKSLVEDFPNDFVVDLSPTVDGSFLFPVKSLYNLDEDETQGAIAINLLPLVSQSEPGRVADEMSNSRKRVVSPICLSPCFRLLRLYTGEQNNGSLEEIDALLGCPLYLTDLEVEGKLDSLSKQEREFLCSLLFYALNWFREVVNAFCQQQDAEMKGKVLTRLQNITELQNVLGKCLAATPGYVPPPATFDSEAPEGVPSINAGGPVRKKNGKKRKSDSSKACSAERTQADESSDGNQPDTELSELEKSATEKETGNPLAQLQSYRPYFRELDLEVFSVLHCGLLTKSILDTEMHTEASEVVQLGPAELCFLLDDMCWKLEHVLTPGSTRRVPFLKERGNKDVGFSHLCQRSPKEVAVCVVKLLKPLCNHMENMHNYFQTVIPNQGVVDESGLNIQEYQLMSSCYHQLLLAFRLLFAWSGFSQHENSNLLRSALQVLADRLKPGETEFLPLEELISESFQYLLNFQASIPSFQCAFILTQVLMAISEKPMTGWKREKMASLAKQFLCQSWMKPGGDREKGSHFNSALHTLLCVYLEHTDNILKAIEEISSVGVPELINSAKDGCSSTYPTLSRQTFPVFFRVMMAQLESSVKSIPAGKPSDSGEVQLEKLLKWNIAVRNFHILINLVKVFDSRPVLSICLKYGRLFVEAFLKLAMPLLDHSFKKHRDDVQSLLKTLQLSTRQLHHMCGHSKIHQDLGLTNHVPLLKKSLEQFVYRVKAMLAFNHCQEAFWVGVLKNRDLQGEEILSQASAAPEEDSAEGSEEDTADSAAEEPDGTDSDSGGAGR

The data set “SEC” concerns the molecule itself. Kind of data set: SEC. Background: In gel filtration, larger molecules generally elute earlier.
Data set [1] concerns the target FANCD2 (in co-expressed D2-I);FANCI (in co-expressed D2-I) (Gallus gallus;Gallus gallus, UniProt Q68Y81;B0I564 1-1439;1-1338, |). Kind of data set: EMSA. A general note: A gel shift assay detects complexes by their altered migration in electrophoresis.
Data set [2] has as its target B1. Description: pull-down.
The target in a further data set is T1, FANCI (isolated) (Gallus gallus, UniProt B0I564 1-1338).
T1 sequence: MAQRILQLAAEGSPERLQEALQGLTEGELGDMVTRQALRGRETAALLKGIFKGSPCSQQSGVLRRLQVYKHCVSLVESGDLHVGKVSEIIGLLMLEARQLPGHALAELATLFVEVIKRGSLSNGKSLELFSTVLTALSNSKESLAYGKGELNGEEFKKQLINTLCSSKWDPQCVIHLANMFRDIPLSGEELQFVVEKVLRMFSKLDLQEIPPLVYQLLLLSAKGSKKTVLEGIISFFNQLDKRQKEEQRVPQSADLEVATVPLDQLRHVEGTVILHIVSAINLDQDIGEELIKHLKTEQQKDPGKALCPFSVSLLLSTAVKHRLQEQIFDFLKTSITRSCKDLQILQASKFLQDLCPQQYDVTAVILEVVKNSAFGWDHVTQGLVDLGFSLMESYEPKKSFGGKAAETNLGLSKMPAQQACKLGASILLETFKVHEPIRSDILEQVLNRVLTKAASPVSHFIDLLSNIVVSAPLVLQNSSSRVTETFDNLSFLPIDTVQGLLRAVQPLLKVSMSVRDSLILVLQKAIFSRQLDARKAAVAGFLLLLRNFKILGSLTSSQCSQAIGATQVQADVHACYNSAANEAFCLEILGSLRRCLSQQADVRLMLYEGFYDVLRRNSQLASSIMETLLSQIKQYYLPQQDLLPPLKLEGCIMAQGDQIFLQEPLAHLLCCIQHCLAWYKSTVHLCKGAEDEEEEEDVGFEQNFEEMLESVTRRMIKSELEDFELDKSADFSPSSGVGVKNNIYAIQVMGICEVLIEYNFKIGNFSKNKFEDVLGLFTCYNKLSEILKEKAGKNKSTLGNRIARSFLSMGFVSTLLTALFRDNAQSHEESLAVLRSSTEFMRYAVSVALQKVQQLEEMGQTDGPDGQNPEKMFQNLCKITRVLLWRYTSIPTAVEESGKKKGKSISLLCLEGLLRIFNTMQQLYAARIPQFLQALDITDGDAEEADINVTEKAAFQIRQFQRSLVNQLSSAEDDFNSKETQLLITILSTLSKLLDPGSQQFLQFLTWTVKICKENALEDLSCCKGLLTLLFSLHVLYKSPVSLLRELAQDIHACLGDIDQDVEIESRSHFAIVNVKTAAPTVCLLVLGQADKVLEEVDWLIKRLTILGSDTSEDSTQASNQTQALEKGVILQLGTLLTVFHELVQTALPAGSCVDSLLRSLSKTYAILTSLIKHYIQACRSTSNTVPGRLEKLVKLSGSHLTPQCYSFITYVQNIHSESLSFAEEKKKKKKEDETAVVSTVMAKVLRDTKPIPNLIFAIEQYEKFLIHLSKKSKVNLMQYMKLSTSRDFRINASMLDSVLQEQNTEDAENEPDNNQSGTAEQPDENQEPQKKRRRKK
Kind of data set: EMSA.

For a further data set, the target named is FANCD2 (isolated) (Gallus gallus, UniProt Q68Y81 1-1439). Kind of data set: EMSA.

Turning to B1, the “stoichiometry N” value in “SEC” is 2.

B2: 19 bp dsDNA (dsDNA)
DNA 1: ATCGATGTCTCTAGACAGC
DNA 2: GCTGTCTAGAGACATCGAT
With B2, the binding result in data set [1] is “binds”.

B3: His-tagged Gallus gallus FANCI (expressed alone) (natural protein, UniProt B0I564 1-1338, looked up)
chain: MAQRILQLAAEGSPERLQEALQGLTEGELGDMVTRQALRGRETAALLKGIFKGSPCSQQSGVLRRLQVYKHCVSLVESGDLHVGKVSEIIGLLMLEARQLPGHALAELATLFVEVIKRGSLSNGKSLELFSTVLTALSNSKESLAYGKGELNGEEFKKQLINTLCSSKWDPQCVIHLANMFRDIPLSGEELQFVVEKVLRMFSKLDLQEIPPLVYQLLLLSAKGSKKTVLEGIISFFNQLDKRQKEEQRVPQSADLEVATVPLDQLRHVEGTVILHIVSAINLDQDIGEELIKHLKTEQQKDPGKALCPFSVSLLLSTAVKHRLQEQIFDFLKTSITRSCKDLQILQASKFLQDLCPQQYDVTAVILEVVKNSAFGWDHVTQGLVDLGFSLMESYEPKKSFGGKAAETNLGLSKMPAQQACKLGASILLETFKVHEPIRSDILEQVLNRVLTKAASPVSHFIDLLSNIVVSAPLVLQNSSSRVTETFDNLSFLPIDTVQGLLRAVQPLLKVSMSVRDSLILVLQKAIFSRQLDARKAAVAGFLLLLRNFKILGSLTSSQCSQAIGATQVQADVHACYNSAANEAFCLEILGSLRRCLSQQADVRLMLYEGFYDVLRRNSQLASSIMETLLSQIKQYYLPQQDLLPPLKLEGCIMAQGDQIFLQEPLAHLLCCIQHCLAWYKSTVHLCKGAEDEEEEEDVGFEQNFEEMLESVTRRMIKSELEDFELDKSADFSPSSGVGVKNNIYAIQVMGICEVLIEYNFKIGNFSKNKFEDVLGLFTCYNKLSEILKEKAGKNKSTLGNRIARSFLSMGFVSTLLTALFRDNAQSHEESLAVLRSSTEFMRYAVSVALQKVQQLEEMGQTDGPDGQNPEKMFQNLCKITRVLLWRYTSIPTAVEESGKKKGKSISLLCLEGLLRIFNTMQQLYAARIPQFLQALDITDGDAEEADINVTEKAAFQIRQFQRSLVNQLSSAEDDFNSKETQLLITILSTLSKLLDPGSQQFLQFLTWTVKICKENALEDLSCCKGLLTLLFSLHVLYKSPVSLLRELAQDIHACLGDIDQDVEIESRSHFAIVNVKTAAPTVCLLVLGQADKVLEEVDWLIKRLTILGSDTSEDSTQASNQTQALEKGVILQLGTLLTVFHELVQTALPAGSCVDSLLRSLSKTYAILTSLIKHYIQACRSTSNTVPGRLEKLVKLSGSHLTPQCYSFITYVQNIHSESLSFAEEKKKKKKEDETAVVSTVMAKVLRDTKPIPNLIFAIEQYEKFLIHLSKKSKVNLMQYMKLSTSRDFRINASMLDSVLQEQNTEDAENEPDNNQSGTAEQPDENQEPQKKRRRKK
As to B3, the “stoichiometry N” value in data set [2] was ~1 FANCI:FANCD2.

B4: 39 bp dsDNA (dsDNA)
DNA 1: ATCGATGTCTCTAGACAGCTGCTCAGGATTGATCTGTAA
DNA 2: TTACAGATCAATCCTGAGCAGCTGTCTAGAGACATCGAT
As for B4, the results for the binding result in the data set with FANCI (isolated) and in the data set with FANCD2 (isolated) were “binds” and “no binding”, respectively.

B5: 14 bp dsDNA (dsDNA)
DNA 1: ATCGATGTCTCTAG
DNA 2: CTAGAGACATCGAT
As to B5, the binding result in data set [1] was “no binding”.

Usually stoichiometry N stands for the number of molecules, sites or subunits per partner or assembly.
